Assay [1] concerns the target Human αvβ3 integrin (Chemicon, #CC1018), biotinylated (human) (UniProt P06756). Briefly: flow cytometry, 293A cells displaying the ScFvFc, αVβ3-biotin 2.5 ug/ml, APC-streptavidin. Background: In flow cytometry, cells or beads pass a laser one at a time.
Assay [2] shares this target. The assay is described as follows: flow cytometry, 293A cells displaying the ScFvFc, αVβ3-biotin 1 ug/ml, APC-streptavidin.
Assay [3] has the same target. The assay is described as follows: flow cytometry, 293A cells displaying the ScFvFc, αVβ3-biotin 5 ug/ml, APC-streptavidin.
Assay [4] shares this target. Briefly: flow cytometry, 293A cells displaying the ScFvFc, αVβ3-biotin 10 ug/ml, APC-streptavidin.
Assay [5] shares this target. The assay is described as follows: flow cytometry, 293A cells displaying the ScFvFc, αVβ3-biotin 0.5 ug/ml, APC-streptavidin.

Chain of Human αvβ3 integrin (Chemicon, #CC1018), biotinylated (human) (P06756 31-1048 limits assumed, chain 1 of 2): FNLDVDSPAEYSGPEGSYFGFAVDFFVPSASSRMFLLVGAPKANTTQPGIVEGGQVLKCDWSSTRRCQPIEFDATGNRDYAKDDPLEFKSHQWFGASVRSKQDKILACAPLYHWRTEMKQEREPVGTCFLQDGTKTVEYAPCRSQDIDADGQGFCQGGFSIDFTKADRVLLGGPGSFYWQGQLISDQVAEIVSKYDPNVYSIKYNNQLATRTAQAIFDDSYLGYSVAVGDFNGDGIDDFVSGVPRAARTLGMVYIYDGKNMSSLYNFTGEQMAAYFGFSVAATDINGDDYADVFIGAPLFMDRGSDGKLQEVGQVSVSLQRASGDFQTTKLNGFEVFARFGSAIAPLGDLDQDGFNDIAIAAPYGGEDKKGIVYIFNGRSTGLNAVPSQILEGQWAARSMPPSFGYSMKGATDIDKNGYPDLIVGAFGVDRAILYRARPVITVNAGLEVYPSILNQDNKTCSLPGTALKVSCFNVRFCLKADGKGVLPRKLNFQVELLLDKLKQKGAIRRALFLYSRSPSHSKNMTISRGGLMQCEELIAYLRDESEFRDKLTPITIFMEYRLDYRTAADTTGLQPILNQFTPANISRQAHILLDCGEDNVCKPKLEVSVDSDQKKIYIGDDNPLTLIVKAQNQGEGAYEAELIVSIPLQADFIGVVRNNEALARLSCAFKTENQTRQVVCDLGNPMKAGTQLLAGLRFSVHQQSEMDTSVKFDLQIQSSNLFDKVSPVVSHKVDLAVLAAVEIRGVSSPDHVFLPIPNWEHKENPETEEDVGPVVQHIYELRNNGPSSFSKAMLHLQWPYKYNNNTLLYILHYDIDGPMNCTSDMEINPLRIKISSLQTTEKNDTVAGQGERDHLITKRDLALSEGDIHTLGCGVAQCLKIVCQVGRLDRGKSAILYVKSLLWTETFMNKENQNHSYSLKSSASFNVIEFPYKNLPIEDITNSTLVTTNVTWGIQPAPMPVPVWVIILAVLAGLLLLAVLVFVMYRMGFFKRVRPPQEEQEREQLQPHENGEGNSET
Chain of Human αvβ3 integrin (Chemicon, #CC1018), biotinylated (human) (P05106 27-788 limits assumed, chain 2 of 2, further chain): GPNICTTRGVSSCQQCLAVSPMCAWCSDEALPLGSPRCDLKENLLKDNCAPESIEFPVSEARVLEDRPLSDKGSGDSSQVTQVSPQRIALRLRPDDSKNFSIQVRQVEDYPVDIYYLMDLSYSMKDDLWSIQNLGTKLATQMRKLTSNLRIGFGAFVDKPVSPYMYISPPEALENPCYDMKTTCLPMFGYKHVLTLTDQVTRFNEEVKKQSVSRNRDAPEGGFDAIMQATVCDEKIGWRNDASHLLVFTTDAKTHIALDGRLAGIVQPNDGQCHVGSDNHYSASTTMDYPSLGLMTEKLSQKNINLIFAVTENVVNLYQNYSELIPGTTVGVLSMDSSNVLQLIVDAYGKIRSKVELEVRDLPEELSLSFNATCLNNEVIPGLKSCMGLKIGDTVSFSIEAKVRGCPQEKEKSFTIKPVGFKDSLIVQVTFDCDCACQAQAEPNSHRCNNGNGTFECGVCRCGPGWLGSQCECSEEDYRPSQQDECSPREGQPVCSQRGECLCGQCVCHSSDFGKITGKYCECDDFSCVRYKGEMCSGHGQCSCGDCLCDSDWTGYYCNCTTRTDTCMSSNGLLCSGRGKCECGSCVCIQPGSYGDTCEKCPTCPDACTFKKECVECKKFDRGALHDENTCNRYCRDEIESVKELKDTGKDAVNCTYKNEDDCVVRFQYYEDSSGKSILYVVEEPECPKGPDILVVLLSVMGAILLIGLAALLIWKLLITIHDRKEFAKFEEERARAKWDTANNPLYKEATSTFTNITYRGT

B1: Abegrin anti-αvβ3 integrin ScFvFc, displayed on 293A cells (scFv, INN chains, looked up, V domains shown)
VH: QVQLVESGGGVVQPGRSLRLSCAASGFTFSSYDMSWVRQAPGKGLEWVAKVSSGGGSTYYLDTVQGRFTISRDNSKNTLYLQMNSLRAEDTAVYYCARHLHGSFASWGQGTTVTVSS
VL: EIVLTQSPATLSLSPGERATLSCQASQSISNFLHWYQQRPGQAPRLLIRYRSQSISGIPARFSGSGSGTDFTLTISSLEPEDFAVYYCQQSGSWPLTFGGGTKVEIK
modifications: scFv-Fc displayed on 293A cell surface
As for B1, the Percentage of positively stained cell was 85% in assay [1]; 83% in assay [2]; 84% in assay [3]; 90% in assay [4]; 81% in assay [5].

The values are drawn from US20070111260A1.
